US20250011363A1, “OPTIMIZED SHORTENED PEPTIDE THAT BINDS TO ACETYLCHOLINE RECEPTOR, AND USE THEREOF” (SKINMED CO., LTD., priority 2021, published 2025)

Biological target: acetylcholine receptor
Experiment: SPR, AchR immobilised on CM5 chip, peptide 10 uM

Q: With RFSFKK [6mer-2-758] as the binder, how does the Binding affinity (RU) read?
A: Its Binding affinity (RU) is 18 RU.

Q: KYMGRK [6mer-2-768] was tested. Which Binding affinity (RU) did it give?
A: Its Binding affinity (RU) is 22 RU.

Q: For RKCVKR [6mer-2-750], which Binding affinity (RU) is on record?
A: The Binding affinity (RU) was 29 RU.

Q: Which Binding affinity (RU) does the source give for KPTWRK [6mer-2-732] here?
A: Its Binding affinity (RU) is 24 RU.

Q: With RATHRK [6mer-2-715] as the binder, how does the Binding affinity (RU) read?
A: The Binding affinity (RU) was 32 RU.

Q: With KPDARR [6mer-2-773] as the binder, how does the Binding affinity (RU) read?
A: The Binding affinity (RU) was 11 RU.

Q: Which Binding affinity (RU) does the source give for KAEWRK [6mer-2-784] here?
A: The Binding affinity (RU) was 26 RU.

Q: How did the Binding affinity (RU) turn out when RHCHRR [6mer-2-785] was run?
A: Its Binding affinity (RU) is 31 RU.

Q: Which Binding affinity (RU) does the source give for RANFRR [6mer-2-747] here?
A: Its Binding affinity (RU) is 29 RU.

Q: Which Binding affinity (RU) does the source give for KNEKKR [6mer-2-741] here?
A: Its Binding affinity (RU) is 30 RU.

Q: For RYEHRR [6mer-2-753], which Binding affinity (RU) is on record?
A: Its Binding affinity (RU) is 18 RU.

Q: With KPWFKK [6mer-2-738] as the binder, how does the Binding affinity (RU) read?
A: Its Binding affinity (RU) is 29 RU.

Q: KMSMKK [6mer-2-775] was tested. Which Binding affinity (RU) did it give?
A: Its Binding affinity (RU) is 26 RU.

Q: How did the Binding affinity (RU) turn out when RYNDKK [6mer-2-755] was run?
A: The Binding affinity (RU) was 18 RU.

Q: With KFDARK [6mer-2-774] as the binder, how does the Binding affinity (RU) read?
A: Its Binding affinity (RU) is 17 RU.

Q: RNAVKK [6mer-2-764] was tested. Which Binding affinity (RU) did it give?
A: Its Binding affinity (RU) is 31 RU.

Q: With KMNAKK [6mer-2-735] as the binder, how does the Binding affinity (RU) read?
A: Its Binding affinity (RU) is 21 RU.

Q: RASWRR [6mer-2-713] was tested. Which Binding affinity (RU) did it give?
A: Its Binding affinity (RU) is 24 RU.

Q: KYTFKR [6mer-2-718] was tested. Which Binding affinity (RU) did it give?
A: The Binding affinity (RU) was 12 RU.

Q: Which Binding affinity (RU) does the source give for KIPHRR [6mer-2-712] here?
A: Its Binding affinity (RU) is 29 RU.

Q: Which Binding affinity (RU) does the source give for KNNWRR [6mer-2-742] here?
A: The Binding affinity (RU) was 32 RU.

Q: For RNAPKK [6mer-2-778], which Binding affinity (RU) is on record?
A: The Binding affinity (RU) was 21 RU.

Q: For RIKVRK [6mer-2-746], which Binding affinity (RU) is on record?
A: The Binding affinity (RU) was 26 RU.

Q: How did the Binding affinity (RU) turn out when RIHAKK [6mer-2-739] was run?
A: The Binding affinity (RU) was 17 RU.

Q: How did the Binding affinity (RU) turn out when RMEMRK [6mer-2-786] was run?
A: Its Binding affinity (RU) is 30 RU.

Q: How did the Binding affinity (RU) turn out when RIWHKK [6mer-2-787] was run?
A: Its Binding affinity (RU) is 19 RU.

Q: Which Binding affinity (RU) does the source give for RNEHRR [6mer-2-722] here?
A: The Binding affinity (RU) was 21 RU.

Q: Which Binding affinity (RU) does the source give for RATNRK [6mer-2-720] here?
A: The Binding affinity (RU) was 29 RU.

Q: Which Binding affinity (RU) does the source give for RNTHKR [6mer-2-730] here?
A: The Binding affinity (RU) was 26 RU.

Q: For KEDMKR [6mer-2-723], which Binding affinity (RU) is on record?
A: Its Binding affinity (RU) is 23 RU.

Q: How did the Binding affinity (RU) turn out when KIDVRK [6mer-2-714] was run?
A: Its Binding affinity (RU) is 30 RU.

Q: With RICGRK [6mer-2-767] as the binder, how does the Binding affinity (RU) read?
A: The Binding affinity (RU) was 13 RU.

Q: RDMVRK [6mer-2-783] was tested. Which Binding affinity (RU) did it give?
A: The Binding affinity (RU) was 32 RU.

Q: Which Binding affinity (RU) does the source give for RFDKKR [6mer-2-748] here?
A: Its Binding affinity (RU) is 28 RU.

Q: KDSVRR [6mer-2-737] was tested. Which Binding affinity (RU) did it give?
A: Its Binding affinity (RU) is 19 RU.

Q: KIDIRR [6mer-2-740] was tested. Which Binding affinity (RU) did it give?
A: Its Binding affinity (RU) is 12 RU.

Q: For KECGRR [6mer-2-711], which Binding affinity (RU) is on record?
A: Its Binding affinity (RU) is 29 RU.

Q: With KITARR [6mer-2-771] as the binder, how does the Binding affinity (RU) read?
A: The Binding affinity (RU) was 26 RU.

Q: With RCPDKR [6mer-2-729] as the binder, how does the Binding affinity (RU) read?
A: Its Binding affinity (RU) is 30 RU.

Q: For KMWKRK [6mer-2-749], which Binding affinity (RU) is on record?
A: The Binding affinity (RU) was 20 RU.

Q: For KNTERR [6mer-2-745], which Binding affinity (RU) is on record?
A: Its Binding affinity (RU) is 17 RU.

Q: How did the Binding affinity (RU) turn out when KPWPKR [6mer-2-782] was run?
A: Its Binding affinity (RU) is 18 RU.

Q: Which Binding affinity (RU) does the source give for KDHPRK [6mer-2-744] here?
A: The Binding affinity (RU) was 19 RU.

Q: How did the Binding affinity (RU) turn out when KHCHRR [6mer-2-734] was run?
A: The Binding affinity (RU) was 17 RU.

Q: With RNKKKK [6mer-2-710] as the binder, how does the Binding affinity (RU) read?
A: Its Binding affinity (RU) is 14 RU.

Q: How did the Binding affinity (RU) turn out when RPTFRK [6mer-2-766] was run?
A: Its Binding affinity (RU) is 23 RU.

Q: How did the Binding affinity (RU) turn out when KHHKKK [6mer-2-726] was run?
A: The Binding affinity (RU) was 25 RU.

Q: With KMKERR [6mer-2-763] as the binder, how does the Binding affinity (RU) read?
A: The Binding affinity (RU) was 19 RU.

Q: Which Binding affinity (RU) does the source give for KPTNRK [6mer-2-756] here?
A: The Binding affinity (RU) was 26 RU.

Q: How did the Binding affinity (RU) turn out when RFDEKK [6mer-2-759] was run?
A: Its Binding affinity (RU) is 18 RU.

Q: How did the Binding affinity (RU) turn out when KAAHRR [6mer-2-779] was run?
A: Its Binding affinity (RU) is 13 RU.

Q: Which Binding affinity (RU) does the source give for RTPARK [6mer-2-733] here?
A: The Binding affinity (RU) was 29 RU.

Q: Which Binding affinity (RU) does the source give for RPHWKR [6mer-2-751] here?
A: The Binding affinity (RU) was 12 RU.

Q: With RHPAKK [6mer-2-772] as the binder, how does the Binding affinity (RU) read?
A: Its Binding affinity (RU) is 15 RU.

Q: How did the Binding affinity (RU) turn out when RMTMKK [6mer-2-728] was run?
A: Its Binding affinity (RU) is 23 RU.

Q: Which Binding affinity (RU) does the source give for RTEPRK [6mer-2-761] here?
A: Its Binding affinity (RU) is 29 RU.

Q: For KHTMKR [6mer-2-743], which Binding affinity (RU) is on record?
A: Its Binding affinity (RU) is 18 RU.

Q: Which Binding affinity (RU) does the source give for KPNMKK [6mer-2-770] here?
A: Its Binding affinity (RU) is 24 RU.

Q: How did the Binding affinity (RU) turn out when KHSPRK [6mer-2-765] was run?
A: Its Binding affinity (RU) is 23 RU.

Q: With RIPNKR [6mer-2-757] as the binder, how does the Binding affinity (RU) read?
A: Its Binding affinity (RU) is 19 RU.

Q: How did the Binding affinity (RU) turn out when KIPVKK [6mer-2-760] was run?
A: Its Binding affinity (RU) is 15 RU.

Q: KASWKK [6mer-2-731] was tested. Which Binding affinity (RU) did it give?
A: Its Binding affinity (RU) is 19 RU.

Q: For RHSKKK [6mer-2-721], which Binding affinity (RU) is on record?
A: The Binding affinity (RU) was 26 RU.

Q: For KAHMKK [6mer-2-725], which Binding affinity (RU) is on record?
A: The Binding affinity (RU) was 25 RU.

Q: How did the Binding affinity (RU) turn out when RCPFRK [6mer-2-769] was run?
A: Its Binding affinity (RU) is 13 RU.

Q: With KIKPRR [6mer-2-719] as the binder, how does the Binding affinity (RU) read?
A: The Binding affinity (RU) was 29 RU.

Q: KFEERK [6mer-2-762] was tested. Which Binding affinity (RU) did it give?
A: Its Binding affinity (RU) is 24 RU.

Q: With KYTMKK [6mer-2-724] as the binder, how does the Binding affinity (RU) read?
A: The Binding affinity (RU) was 24 RU.

Q: Which Binding affinity (RU) does the source give for KINWRR [6mer-2-752] here?
A: Its Binding affinity (RU) is 29 RU.

Q: Which Binding affinity (RU) does the source give for RTWKKR [6mer-2-716] here?
A: The Binding affinity (RU) was 18 RU.

Q: KITIRK [6mer-2-780] was tested. Which Binding affinity (RU) did it give?
A: The Binding affinity (RU) was 31 RU.

Q: With KNDVRR [6mer-2-777] as the binder, how does the Binding affinity (RU) read?
A: Its Binding affinity (RU) is 31 RU.

Q: Which Binding affinity (RU) does the source give for RDMIKR [6mer-2-727] here?
A: Its Binding affinity (RU) is 11 RU.

Q: How did the Binding affinity (RU) turn out when KTMNRK [6mer-2-781] was run?
A: The Binding affinity (RU) was 28 RU.

Q: How did the Binding affinity (RU) turn out when RFPWRK [6mer-2-776] was run?
A: The Binding affinity (RU) was 12 RU.

Q: With KNNHKK [6mer-2-736] as the binder, how does the Binding affinity (RU) read?
A: The Binding affinity (RU) was 29 RU.

Q: With KADGRR [6mer-2-754] as the binder, how does the Binding affinity (RU) read?
A: The Binding affinity (RU) was 12 RU.

Q: Which Binding affinity (RU) does the source give for KCPGKR [6mer-2-717] here?
A: Its Binding affinity (RU) is 15 RU.
